The values below come from IntAct's records for PubMed 24553140.

B1: Autophagy-related protein 16-1 (Mus musculus), Q8C0J2 (parent)
chain: MSSGLRAADFPRWKRHIAEELRRRDRLQRQAFEEIILQYTKLLEKSDLHSVLTQKLQAEKHDMPNRHEISPGHDGAWNDSQLQEMAQLRIKHQEELTELHKKRGELAQLVIDLNNQMQQKDKEIQMNEAKISEYLQTISDLETNCLDLRTKLQDLEVANQTLKDEYDALQITFTALEEKLRKTTEENQELVTRWMAEKAQEANRLNAENEKDSRRRQARLQKELAEAAKEPLPVEQDDDIEVIVDETSDHTEETSPVRAVSRAATKRLSQPAGGLLDSITNIFGRRSVSSIPVPQDIMDTHPASGKDVRVPTTASYVFDAHDGEVNAVQFSPGSRLLATGGMDRRVKLWEAFGDKCEFKGSLSGSNAGITSIEFDSAGAYLLAASNDFASRIWTVDDYRLRHTLTGHSGKVLSAKFLLDNARIVSGSHDRTLKLWDLRSKVCIKTVFAGSSCNDIVCTEQCVMSGHFDKKIRFWDIRSESVVREMELLGKITALDLNPERTELLSCSRDDLLKVIDLRTNAVKQTFSAPGFKCGSDWTRVVFSPDGSYVAAGSAEGSLYVWSVLTGKVEKVLSKQHSSSINAVAWAPSGLHVVSVDKGSRAVLWAQP

This experiment covers variants of B1. Particulars: with mlp3a_mouse Map1lc3a.
Consider T300A, for which the “effect of a mutation on the interaction” value is listed as “decreasing interaction”.
